# Reference: patent US10654918B2, “Inflammatory disease diagnosis and methods of treatment using down-regulators of lipopolysaccharide-responsive beige-like anchor” (University of South Florida, priority 2013, dated 2020)
# B1: LRBA shRNA: shRNA plasmid against LRBA; targeted LRBA sequence SEQ ID No. 15 GGGATATTGTAGAAACTGTCTTT (nucleic acid)
# sense: GGGATATTGTAGAAACTGTCTTTTTCAAGAGAAAAGACAGTTTCTACAATATCCCTTTTTT
# antisense: CCCTATAACATCTTTGACAGAAAAAGTTCTCTTTTCTGTCAAAGATGTTATAGGGAAAAAA
# Legend:
# Assay type in all cases: cell-based, human
# Raji B cells [1] = test: Cytokines of Raji and Raji-9 cells treated with LPS (ELISA, CBA)
# Method: FIG. 21 are graphs showing knockdown of LRBA increases the TNFα levels in Raji B (Burkitt's lymphoma) cells. Raji B cells and Raji-9 (stably transfected with shRNA plasmid against LRBA) B cells were treated with LPS (1 μg/ml). The TNFa concentrations were measured by Human TNFα DuoSet ELISA kit (R&D) following the manufacture's instruction. A. Culture supernatant; B. Cell lysate. #=p<0.07, *=p<0.05, **=p<0.005.
# FIGS. 48(A)-(I). Knockdown of LRBA influences the levels of cytokines. A. Raji cells (LRBA WT or KD) were seeded in a 24 well plate wells and stimulated with LPS for 15 min (1), 30 min (2) and 1 hr (3) with 0.26 million cells in each well or for 2 h (4), 4 h (5) and 24 h (6) with 0.2 million cells in each well, 0.2 million of cells were plated in each well. ELISA and CBA assays of TNFα and IL-10. Cells were treated as in A. 0.2×10^6 cells, timepoint. 500 uL total volume medium. Duoset ELISA human TNF-a kit protocol was followed for cell culture supernatant. Blues: Raji (♦); Red: Raji9 (▪). Data are representative of 2 to 5 separate experiments.
# Cell culture supernatants were directly used to detect human Th1 and Th2 cytokines (IL-2, IL-4, IL-5, IL-6, IL-10, TNFα and IFN-γ) using the human Th1/Th2 cytokine bead-array kit (BD Biosciences, San Jose, Calif.) according to the manufacturer's instructions. The TNF[…] concentrations were also measured by Human TNF[…] DuoSet ELISA kit (R&D, Catalog #DY210).
# Raji B cells [2] = test: Viable cell count of Raji B cells and Rajisi9 B cells; details: 10 cells per well, 11 days
# Method: FIG. 20 is a graph showing knockdown of LRBA promotes B cell proliferations. Raji B cells and Rajisi9 B cells (Raji B cells stably transfected with shRNA plasmid against LRBA) were culture on a 96 well plate with 10 cells per well for 11 days. Viable cells were counted by the Trypan blue live/dead discrimination method with a Hemocytometer.
# Raji B cells and Rajisi9 B cells (Raji B cells stably transfected with shRNA plasmid against LRBA) were cultured in a 96 well plate with 10 cells per well for 9 days. Blockage of LRBA promotes THP1 cell proliferation. THP1 cells (human acute monocytic leukemia cell line) were cultured in 100 μl of RPMI1640 media with or without human LRBA polyclonal IgG antibody at 0.67 μg/ml or the same amount of human actin polyclonal IgG antibody on a 96 well plate with 10 cells per well for 9 days. Viable cells were counted by the trypan blue live/dead discrimination method with a hemocytometer.
# NF-κB = NF-κB luciferase reporter and phospho-NFκB flow cytometry in Raji cells with LRBA knockdown
# Text: FIG. 45A-D. Knockdown of LRBA deregulates NFκB. (A) Knockdown of LRBA increases NFκB luciferase activity. An NFκB luciferase reporter was used to measure the NFκB transcription activity. The data are shown as scatter with bar graph of mean with standard error of mean (SEM). (B) Knockdown of LRBA increases phospho-NFκB. The Phosflow kit including Cytofix Fixation Buffer, Phosflow Perm Buffer III and Stain Buffer (BD) and phospho-antibodies, NFκB p65 (pS529) PE-Cy7 were used for the intracellular staining following the company's instruction. For each samples, 50,000 cells were recorded for the FACS assay. (C) A549 cells were stably transfected with LRBA shRNA knockdown plasmid and several clones were picked up. […]
# FIGS. 46(A) and (B). […] NFκB luciferase activity was measured at each time point for both cell lines as in A. RLU: Relative Light Units. […]
# NF-κB is the central regulator of the immune system and plays a pivotal role in inflammation and immune responses. […] Raji cells were stimulated with LPS for different times from zero to several hours, and the NF-κB activity was measured by NF-κB luciferase reporter. […]
# Ready-To-Glow™ NF-κB Secreted Luciferase Reporter System (Clontech) and Firefly Luciferase Assay Kit (Biotium, Calif., USA) were used following the manufacture's instruction.
molecule,measurement,setting,value
B1,TNFα levels in cell culture supernatants and cell lysates (ELISA),"Raji B cells [1]; LPS stimulation for 15 min to 24 h, vs untransfected Raji B cells",significantly increased
same,secreted levels of IL-10 (CBA),"Raji B cells [1]; Raji cells, LPS",significantly increased
same,secreted levels of TNFα (CBA),"Raji B cells [1]; Raji cells, LPS",significantly increased
same,"B cell proliferations (viable cells, Trypan blue)",Raji B cells [2],promotes
same,"phospho-NFκB (pS529), flow cytometry",NF-κB; Raji cells,increases
same,average levels of the NF-κB activity (luciferase reporter),"NF-κB; Raji cells stimulated with LPS, zero to several hours",higher
